Reference: US9951356B2, “Processes to prepare elongated 2-ketoacids and C6-C10 compounds therefrom via genetic modifications to microbial metabolic pathways” (Dow Global Technologies LLC, priority 2013, dated 2018)

Assays:
Assay type in all cases: biochemical
[1] = HTP screening assay of LeuB variants, 3-IPM; conditions: 750 μM 3-IPM, 2 mM NAD+, pH 8.0, 25° C.; mean of duplicates
Procedure: (§1) The evaluation of the LeuB variants is performed in two steps using the high-throughput enzyme assay described below. Initially, all of the variants are screened for activity against a single high concentration of 3-IPM, 3-BM and 3-HM. Following the initial evaluation, detailed kinetic analysis is performed on a select number of variants to determine the maximal rate (kcat), Michaelis-Menten constant (KM), and the catalytic efficiency of the variant enzymes (kcat/KM).
(§2) A suitable spectrophotometric LeuB enzyme assay is adapted into a high-throughput format in 96-well plates for the kinetic evaluation of LeuB and its variants (shown in Table 1) against 3-isopropylmalate (3-IPM), 3-butylmalate (3-BM), and 3-hexylmalate (3-HM). See, for example, Hsu, Y.; Kohlhaw, G. B. “Leucine biosynthesis in Saccharomyces cerevisiae. Purification and characterization of beta-isopropylmalate dehydrogenase,” J. Biol. Chem., 1980, 255:7255-7260. Steady state kinetic parameters (kcat, KM and kcat/KM) for the oxidative decarboxylation of the three substrates by the variants are determined in these experiments.
(§3) The HTP screening assay involves incubating 750 micromoles (μM) of 3-IPM, 1 mM 3-BM or 1 mM 3-HM, with 2 mM nicotinamide adenine dinucleotide (NAD^+) in LeuB assay buffer (50 mM 4-(2-hydroxyethyl) piperazine-1-ethanesulfonic acid (HEPES), pH 8.0, containing 30 mM potassium chloride (KCl) and 5 mM magnesium chloride (MgCl2)) at 25° C. The reaction is started by the addition at 25° C. of working enzyme stock containing from 0.3 microgram (μg) to 1.1 μg of LeuB variant diluted in assay buffer containing 1 mM DTT and 1 milligram per milliliter (mg/mL) bovine serum albumin (BSA). The plate containing the 200 μL of reaction mixture is centrifuged at 2500×g for 15 seconds (sec) and the absorbance change of the reaction mixture is followed spectrophotometrically at 340 nm on a BioTek™ plate reader, pre-equilibrated at 25° C. Initial velocity of the enzyme reaction is calculated from the rate of NADH production at 340 nm and using the extinction coefficient of NADH (6.22 per millimolar per centimeter (mM^−1cm^−1)). The activity of all the variants is normalized with the amount of enzyme present in the reaction mixture and expressed as nanomoles per minute per microgram (nmol·min^−1·μg^−1) (Table 2). Protein concentrations for normalizing the activities are determined using the 660 nm total protein assay kit acquired from Pierce Biotechnology Inc.™, available from Thermo Fisher Scientific, Inc., and using BSA as the standard.

[2] = HTP screening assay of LeuB variants, 3-BM; conditions: 1 mM 3-BM, 2 mM NAD+, pH 8.0, 25° C.; mean of duplicates
Procedure: as §1, §2, §3

[3] = HTP screening assay of LeuB variants, 3-HM; conditions: for Specific activity, 3-HM: 1 mM 3-HM, 2 mM NAD+, pH 8.0, 25° C., mean of duplicates; for activity against 3-HM compared with the wild type enzyme: screening at single high concentration
Procedure: as §1, §2, §3

[4] = HTP LeuB kinetic assay, oxidative decarboxylation of 3-IPM; conditions: for decrease in efficiency of capturing 3-IPM compared with the wild type enzyme: less efficient than wild type LeuB; for Km / kcat: substrate 3-IPM, mean ± S.D.
Procedure: as §1, §2
(§4) The HTP kinetic assay involves incubating eight varied concentrations, of 3-IPM (from 0 to 1.2 mM) or 3-BM (from 0 to 2 mM) or 3-HM (from 0 to 2 mM), with 2 mM NAD^+ in LeuB assay buffer (50 mM HEPES, pH 8.0, containing 30 mM KCl and 5 mM MgCl2) at 25° C. The reaction is started by adding from 0.008 μg to 0.5 μg of LeuB variant which has been pre-diluted in assay buffer containing 1 mM DTT and 1 mg/mL BSA. The plate containing the 200 μl of reaction mixture is centrifuged at 2500×g for 15 sec and the absorbance change is followed spectrophotometrically at 340 nm on a BioTek™ plate reader maintained at 25° C. Initial velocity of the enzyme reaction is calculated from the rate of NADH production at 340 nm and using the extinction coefficient of NADH (6.22 mM^−1cm^−1). The kinetic parameters (kcat, KM and kcat/KM) of oxidative decarboxylation of 3-alkylmalate are determined by fitting the data to the Michaelis-Menten equation using nonlinear regression performed using the GraphPad Prism™ software. Table 3 lists the kinetic parameters of the wild type and engineered variants against the three substrates. The amount of enzyme in the reaction mixture is determined using the 660 nm total protein assay kit acquired from Pierce Biotechnology Inc.™, using BSA as the standard.

[5] = HTP LeuB kinetic assay, oxidative decarboxylation of 3-BM; conditions: for Km / kcat: substrate 3-BM, mean ± S.D.
Procedure: as §1, §2, §4

[6] = HTP LeuB kinetic assay, oxidative decarboxylation of 3-HM; conditions: for Km / kcat: substrate 3-HM, mean ± S.D.; for increase in efficiency of capturing 3-HM compared with the wild type enzyme: more efficient than wild type LeuB
Procedure: as §1, §2, §4

Row | Molecule | Specific activity, 3-IPM [1] | Specific activity, 3-BM [2] | Specific activity, 3-HM [3] | activity against 3-HM compared with the wild type enzyme [3] | decrease in efficiency of capturing 3-IPM compared with the wild type enzyme [4] | Km [4] | kcat [4] | efficiency of capturing 3-BM compared with the wild type enzyme ([5]; in words) | Km [5] | kcat [5] | Km [6] | kcat [6] | increase in efficiency of capturing 3-HM compared with the wild type enzyme [6] | catalytic efficiency for 3-IPM relative to that for 3-HM ([4]; higher for 3-IPM than for 3-HM)
1 | L96A: E. coli isopropylmalate dehydrogenase (LeuB) with Leu-96 replaced with alanine (protein, UniProt P30125 2-363, looked up, variant L96A) 3-isopropylmalate …: SKNYHIAVLPGDGIGPEVMTQALKVLDAVRNRFAMRITTSHYDVGGAAIDNHGQPLPPATVEGCEQADAVLFGSVGGPKWEHLPPDQQPERGALAPLRKHFKLFSNLRPAKLYQGLEAFCPLRADIAANGFDILCVRELTGGIYFGQPKGREGSGQYEKAFDTEVYHRFEIERIARIAFESARKRRHKVTSIDKANVLQSSILWREIVNEIATEYPDVELAHMYIDNATMQLIKDPSQFDVLLCSNLFGDILSDECAMITGSMGMLPSASLNEQGFGLYEPAGGSAPDIAGKNIANPIAQILSLALLLRYSLDADDAACAIERAINRALEEGIRTGDLARGAAAVSTDEMGDIIARYVAEGV | 15.4 nmol/min/µg | 9.48 nmol/min/µg | 0.77 nmol/min/µg | higher activity than the wild type enzyme | approximately 4 fold | 16 ± 10 µM | 11.1 ± 2.57 s⁻¹ | modestly poor | 130 ± 20 µM | 7 ± 0.367 s⁻¹ | 240 ± 40 µM | 0.683 ± 0.0083 s⁻¹ | – | –
2 | L96G: E. coli LeuB variant with Leu-96 replaced with glycine (protein, UniProt P30125 2-363, looked up, variant L96G) 3-isopropylmalate …: SKNYHIAVLPGDGIGPEVMTQALKVLDAVRNRFAMRITTSHYDVGGAAIDNHGQPLPPATVEGCEQADAVLFGSVGGPKWEHLPPDQQPERGALGPLRKHFKLFSNLRPAKLYQGLEAFCPLRADIAANGFDILCVRELTGGIYFGQPKGREGSGQYEKAFDTEVYHRFEIERIARIAFESARKRRHKVTSIDKANVLQSSILWREIVNEIATEYPDVELAHMYIDNATMQLIKDPSQFDVLLCSNLFGDILSDECAMITGSMGMLPSASLNEQGFGLYEPAGGSAPDIAGKNIANPIAQILSLALLLRYSLDADDAACAIERAINRALEEGIRTGDLARGAAAVSTDEMGDIIARYVAEGV | 2.90 nmol/min/µg | 1.5 nmol/min/µg | 9.5 nmol/min/µg | higher activity than the wild type enzyme | 100 fold | – | – | – | 1900 ± 200 µM | 3.12 ± 0.1 s⁻¹ | 30 ± 3 µM | 7.58 ± 0.167 s⁻¹ | 80 fold | –
3 | V198A: E. coli LeuB variant with Val-198 replaced with alanine (protein, UniProt P30125 2-363, looked up, variant V198A) 3-isopropylmalate …: SKNYHIAVLPGDGIGPEVMTQALKVLDAVRNRFAMRITTSHYDVGGAAIDNHGQPLPPATVEGCEQADAVLFGSVGGPKWEHLPPDQQPERGALLPLRKHFKLFSNLRPAKLYQGLEAFCPLRADIAANGFDILCVRELTGGIYFGQPKGREGSGQYEKAFDTEVYHRFEIERIARIAFESARKRRHKVTSIDKANALQSSILWREIVNEIATEYPDVELAHMYIDNATMQLIKDPSQFDVLLCSNLFGDILSDECAMITGSMGMLPSASLNEQGFGLYEPAGGSAPDIAGKNIANPIAQILSLALLLRYSLDADDAACAIERAINRALEEGIRTGDLARGAAAVSTDEMGDIIARYVAEGV | 2.83 nmol/min/µg | 1.81 nmol/min/µg | 2.5 nmol/min/µg | higher activity than the wild type enzyme | 1,000 fold | – | – | – | – | – | 110 ± 10 µM | 1.62 ± 0.55 s⁻¹ | 5 fold | –
4 | Wild type LeuB: native E. coli LeuB (isopropylmalate dehydrogenase), SEQ ID 2, histidine-tagged (protein, UniProt P30125 2-363, looked up) 3-isopropylmalate …: SKNYHIAVLPGDGIGPEVMTQALKVLDAVRNRFAMRITTSHYDVGGAAIDNHGQPLPPATVEGCEQADAVLFGSVGGPKWEHLPPDQQPERGALLPLRKHFKLFSNLRPAKLYQGLEAFCPLRADIAANGFDILCVRELTGGIYFGQPKGREGSGQYEKAFDTEVYHRFEIERIARIAFESARKRRHKVTSIDKANVLQSSILWREIVNEIATEYPDVELAHMYIDNATMQLIKDPSQFDVLLCSNLFGDILSDECAMITGSMGMLPSASLNEQGFGLYEPAGGSAPDIAGKNIANPIAQILSLALLLRYSLDADDAACAIERAINRALEEGIRTGDLARGAAAVSTDEMGDIIARYVAEGV | 18.3 nmol/min/µg | 4.3 nmol/min/µg | 0.68 nmol/min/µg | – | – | 9 ± 3 µM | 23.92 ± 2.02 s⁻¹ | – | 38 ± 13 µM | 3.65 ± 0.333 s⁻¹ | 160 ± 20 µM | 0.433 ± 0.033 s⁻¹ | – | 1,000 fold
